Source: PMC11333002, “Molecular dynamics simulations reveal how vinculin refolds partially unfolded talin rod helices to stabilize them against mechanical force” (PLOS Computational Biology, 2024)
Where two headings read alike, the source gives them in different places.

Tests used:
[1] = molecular target: mouse talin1 R1 VBS (H4) peptide, fluorescein labelled (mouse); experiment: fluorescence polarisation; fluorescein-labelled VBS peptide at 700 nM, 2-fold serial dilution of protein, triplicate, 25°C; one-site total binding equation
talin = details: cited from earlier work
Source text: (Fig 1H). However, how the complexation occurs when the VBS structure is destabilized by force remains unclear. ... || Constant velocity SMD is known to overestimate the unfolding force magnitude, and the measured unfolding forces were approximately one order of magnitude higher when compared to the force required experimentally for vinculin dissociation from talin (above 25 pN). Therefore, to reach unfolding force magnitude within the force range seen in previous studies (<100 pN), we performed microsecond-scale constant force SMD simulations. Using constant force at 70 pN, we achieved limited but noticeable VBS destabilization in the vinculin-bound state within 3 μs. Increasing the fo ... || To assess the thermodynamic parameters of recognition and binding of partially unfolded talin VBS by vinculin, we used umbrella sampling and the weighted histogram analysis method to calculate the vinculin–VBS binding energy profiles. We used two different starting states of VBS: 1) fully α-helical VBS and 2) partially unfolded VBS, stretched by 1.5 nm. This distance was chosen to be consistent with the previously observed contractions upon vinculin binding to R3 (∼1.5–2.5 nm per VBS, depending on force magnitude). The whole process of vinculin–VBS binding was divided into three ... || (+ 2 further places)

Sequence of mouse talin1 R1 VBS (H4) peptide, fluorescein labelled (mouse) (peptide, as listed by the source): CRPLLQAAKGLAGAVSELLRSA

Molecule: VD1 domain of mouse vinculin, Q19S (domain or fragment)
- fold higher affinity than WT mVD1 [1]: 1.75 fold

B1: vinculin: vinculin in cited magnetic tweezers experiments with talin (protein, UniProt P18206 1-1134, looked up)
Vinculin: MPVFHTRTIESILEPVAQQISHLVIMHEEGEVDGKAIPDLTAPVAAVQAAVSNLVRVGKETVQTTEDQILKRDMPPAFIKVENACTKLVQAAQMLQSDPYSVPARDYLIDGSRGILSGTSDLLLTFDEAEVRKIIRVCKGILEYLTVAEVVETMEDLVTYTKNLGPGMTKMAKMIDERQQELTHQEHRVMLVNSMNTVKELLPVLISAMKIFVTTKNSKNQGIEEALKNRNFTVEKMSAEINEIIRVLQLTSWDEDAWASKDTEAMKRALASIDSKLNQAKGWLRDPSASPGDAGEQAIRQILDEAGKVGELCAGKERREILGTCKMLGQMTDQVADLRARGQGSSPVAMQKAQQVSQGLDVLTAKVENAARKLEAMTNSKQSIAKKIDAAQNWLADPNGGPEGEEQIRGALAEARKIAELCDDPKERDDILRSLGEISALTSKLADLRRQGKGDSPEARALAKQVATALQNLQTKTNRAVANSRPAKAAVHLEGKIEQAQRWIDNPTVDDRGVGQAAIRGLVAEGHRLANVMMGPYRQDLLAKCDRVDQLTAQLADLAARGEGESPQARALASQLQDSLKDLKARMQEAMTQEVSDVFSDTTTPIKLLAVAATAPPDAPNREEVFDERAANFENHSGKLGATAEKAAAVGTANKSTVEGIQASVKTARELTPQVVSAARILLRNPGNQAAYEHFETMKNQWIDNVEKMTGLVDEAIDTKSLLDASEEAIKKDLDKCKVAMANIQPQMLVAGATSIARRANRILLVAKREVENSEDPKFREAVKAASDELSKTISPMVMDAKAVAGNISDPGLQKSFLDSGYRILGAVAKVREAFQPQEPDFPPPPPDLEQLRLTDELAPPKPPLPEGEVPPPRPPPPEEKDEEFPEQKAGEVINQPMMMAARQLHDEARKWSSKPGIPAAEVGIGVVAEADAADAAGFPVPPDMEDDYEPELLLMPSNQPVNQPILAAAQSLHREATKWSSKGNDIIAAAKRMALLMAEMSRLVRGGSGTKRALIQCAKDIAKASDEVTRLAKEVAKQCTDKRIRTNLLQVCERIPTISTQLKILSTVKATMLGRTNISDEESEQATEMLVHNAQNLMQSVKETVREAEAASIKIRTDAGFTLRWVRKTPWYQ
- vinculin–VBS binding above 15 pN (talin; above 15 pN, ref [26]): fast transition
- increase in talin end-to-end distance on vinculin dissociation (talin; above 25 pN, ref [22],[26]): ~3 nm
- contraction per VBS on vinculin binding to R3 (talin; depending on force magnitude, ref [26]): 1.5–2.5 nm
- time of vinculin–VBS binding under lower forces (talin; lower forces, ref [26]): within hundreds of milliseconds
- force for vinculin dissociation from talin (talin; ref [22],[26]): above 25 pN
- reduction in talin end-to-end distance on vinculin binding (talin; talin R3, 9 pN, ref [26]): ~ 1.5 nm
- reduction in talin end-to-end distance on vinculin binding (talin; talin R3, 20 pN, ref [26]): ~ 2.5 nm
